Measured values: patent US10487307B2, “Culture method for pluripotent stem cells” (FUJIFILM CORPORATION, priority 2013, dated 2019)

B1: RCP-8: recombinant polypeptide for culture, SEQ ID NO: 22; vitronectin positions 1-55, 269-373, 374-379, C274S (protein)
chain: MDQESCKGRCTEGFNVDKKCQCDELCSYYQSCCTDYTAECKPQVTRGDVFTMPEDESQEESEGSSLSAVFEHFAMMQRDSWEDIFELLFWGRTSAGTRQPQFISRDWHGVPGQVDAAMAGRIYISGMAPRPSLAKKQRFRHRNRKGYRSQRGHSRGRNQNSRRPSR
modifications: Vitronectin-derived Recombinant Protein (RCP-8)
notes: vitronectin positions 1-55, 269-373, 374-379, C274S
B2: RCP-7: recombinant polypeptide for culture, SEQ ID NO: 21; vitronectin positions 1-55, 269-373, C274S (protein)
chain: MDQESCKGRCTEGFNVDKKCQCDELCSYYQSCCTDYTAECKPQVTRGDVFTMPEDESQEESEGSSLSAVFEHFAMMQRDSWEDIFELLFWGRTSAGTRQPQFISRDWHGVPGQVDAAMAGRIYISGMAPRPSLAKKQRFRHRNRKGYRSQRGHSRGRNQN
modifications: Vitronectin-derived Recombinant Protein (RCP-7)
notes: vitronectin positions 1-55, 269-373, C274S
B3: RCP-10: recombinant polypeptide for culture, SEQ ID NO: 24; vitronectin positions 1-55, 269-373, 374-399, C274S (protein)
chain: MDQESCKGRCTEGFNVDKKCQCDELCSYYQSCCTDYTAECKPQVTRGDVFTMPEDESQEESEGSSLSAVFEHFAMMQRDSWEDIFELLFWGRTSAGTRQPQFISRDWHGVPGQVDAAMAGRIYISGMAPRPSLAKKQRFRHRNRKGYRSQRGHSRGRNQNSRRPSRATWLSLFSSEESNLGANNYD
modifications: Vitronectin-derived Recombinant Protein (RCP-10)
notes: vitronectin positions 1-55, 269-373, 374-399, C274S
B4: RCP-9: recombinant polypeptide for culture, SEQ ID NO: 23; vitronectin positions 1-55, 269-373, 374-389, C274S (protein)
chain: MDQESCKGRCTEGFNVDKKCQCDELCSYYQSCCTDYTAECKPQVTRGDVFTMPEDESQEESEGSSLSAVFEHFAMMQRDSWEDIFELLFWGRTSAGTRQPQFISRDWHGVPGQVDAAMAGRIYISGMAPRPSLAKKQRFRHRNRKGYRSQRGHSRGRNQNSRRPSRATWLSLFSSE
modifications: Vitronectin-derived Recombinant Protein (RCP-9)
notes: vitronectin positions 1-55, 269-373, 374-389, C274S
B5: RCP-3: recombinant polypeptide for culture, SEQ ID NO: 17; vitronectin positions 1-55, 322-341, 342-373 (protein)
chain: MDQESCKGRCTEGFNVDKKCQCDELCSYYQSCCTDYTAECKPQVTRGDVFTMPEDEGVPGQVDAAMAGRIYISGMAPRPSLAKKQRFRHRNRKGYRSQRGHSRGRNQN
modifications: Vitronectin-derived Recombinant Protein (RCP-3)
B6: RCP-4: recombinant polypeptide for culture, SEQ ID NO: 18; vitronectin positions 1-55, 312-341, 342-373 (protein)
chain: MDQESCKGRCTEGFNVDKKCQCDELCSYYQSCCTDYTAECKPQVTRGDVFTMPEDEQPQFISRDWHGVPGQVDAAMAGRIYISGMAPRPSLAKKQRFRHRNRKGYRSQRGHSRGRNQN
modifications: Vitronectin-derived Recombinant Protein (RCP-4)
B7: RCP-2: recombinant polypeptide for culture, SEQ ID NO: 16; vitronectin positions 1-55 and 342-373 (protein)
chain: MDQESCKGRCTEGFNVDKKCQCDELCSYYQSCCTDYTAECKPQVTRGDVFTMPEDEPRPSLAKKQRFRHRNRKGYRSQRGHSRGRNQN
modifications: Vitronectin-derived Recombinant Protein (RCP-2)
B8: RCP-6: recombinant polypeptide for culture, SEQ ID NO: 20; vitronectin positions 1-55, 269-459, C274S (protein)
chain: MDQESCKGRCTEGFNVDKKCQCDELCSYYQSCCTDYTAECKPQVTRGDVFTMPEDESQEESEGSSLSAVFEHFAMMQRDSWEDIFELLFWGRTSAGTRQPQFISRDWHGVPGQVDAAMAGRIYISGMAPRPSLAKKQRFRHRNRKGYRSQRGHSRGRNQNSRRPSRATWLSLFSSEESNLGANNYDDYRMDWLVPATSEPIQSVFFFSGDKYYRVNLRTRRVDTVDPPYPRSIAQYWLGSPAPGHL
modifications: Vitronectin-derived Recombinant Protein (RCP-6)
notes: vitronectin positions 1-55, 269-459, C274S

test system: iPS cells; assay: Growth evaluation, number of cells after 3 days; format: cell-based, human; conditions: added amount 5 μg/cm^2; 5,000 cells/well; sample 1 (RCP-1) = 100%
Experimental: By adding RCP-1 to RCP-11 and Human Recombinant Laminin-511 as control at the concentration shown in Table 9, samples 1 to 12 were prepared. The samples were seeded into a 96-well plate, onto which each of the polypeptides was adsorbed in the same manner as in <Cell adhesiveness evaluation 1>, at a ratio of 5,000 cells/well and cultured for 3 days in a CO2 incubator at 37° C. The number of cells after 3 days was calculated in the same manner as in <Cell adhesiveness evaluation 1>. In Table 9, the number of cells after 3 days is expressed as a ratio calculated by regarding the number of cells obtained by using the sample 1 as being 100%.

Molecule	Number of cells after 3 days (%)
B1	171.0
B2	89.9

same assay, conditions: added amount 20 μg/cm^2; 5,000 cells/well; sample 1 (RCP-1) = 100%

Molecule	Number of cells after 3 days (%)
B3	101.9
B4	105.8
B5	109.7
B6	120.7
B7	81.7
B8	70.5

test system: human iPS cells ("Tic"); assay: Cell adhesiveness evaluation 1 (ALP activity of adhesive iPS cells); format: cell-based; conditions: added amount 5 μg/cm^2; 30,000 cells/well, 24 hours; natural vitronectin (sample 15) = 100%; n=3
Experimental: The cell adhesiveness of human iPS cells (“Tic”: Cell No. JCRB 1331: from National Institute of Biomedical Innovation. [567-0085, 7-6-8 Asagi Saito Ibaraki-City Osaka]) with respect to the aforementioned polypeptides was evaluated in the following manner.
As feeder cells for retaining the human iPS cells, EmbryoMax (registered trademark) (early mouse embryonic fibroblasts: resistant to hygromycin, treated with mitomycin C, derived from C57/BL6, third passage) (Millipore Corporation) was used. By using DMEM (Invitrogen) and a 10% (v/v) fetal bovine serum medium, the feeder cells were cultured for 24 hours and attached to a T25 flask (Corning Incorporated). As a medium for the human iPS cells, the one obtained by adding FGF-2 (Sigma-Aldrich Co, LLC.) to a medium composed as shown in Table 6 at a final concentration of 10 ng/ml was used.
By using the aforementioned medium, the human iPS cells were retained and cultured in a 5% (v/v, the same unit will be used hereinafter) CO2 incubator at 37° C. Except for the day after the seeding of the iPS cells, the medium was replaced every day. The subculture operation was performed by exfoliating the cells by using Dispase II (neutral protease Grade II, Roche) and separating the cells in an appropriate size by a pipetting operation.
The iPS cells cultured as described above were treated with TrypLE Select (Invitrogen) for 5 minutes at 37° C. and separated into a single cell. After being subjected to centrifugation for 2 minutes at 300 rpm, the cells were collected and suspended in TeSR2 (a medium not containing a heterogeneous animal-derived component and a serum component, STEMCELL Technologies.) containing Y-27362 ((R)-(+)-trans-N-(4-pyridyl)-4-(1-aminoethyl)-cyclohexane carboxamide.2HCl.H2O, an Rho binding kinase inhibitor, Wako Pure Chemical Industries, Ltd.) at a final concentration of 10 μM.
Each of RCP-1 to RCP-11, RCP-21, RCP-25, and RCP-26 as control, human vitronectin (extracted from human serum, BD Biosciences), and recombinant laminin (rLaminin-5: Oriental Yeast Co., ltd. and Human Recombinant Laminin-511: BIOLAMINA AB) was added to and suspended in a predetermined buffer (a dialysis buffer used in <GRAVY value and aggregation characteristics> described above for RCP-1 to RCP-11, and PBS for RCP-21, RCP-25, human vitronectin, and recombinant laminin) at the concentration shown in Table 7, thereby preparing samples 1 to 17. The samples were added to the respective wells of a 96-well plate and adsorbed onto the plate by being held for 2 hours at 37° C.
Into the respective wells of the 96-well plate treated with the peptides, iPS cells were seeded at a cell density of 30,000 cells/well. After the cells were cultured for 24 hours, the nonadhesive cells were washed off with PBS, and only the adhesive cells were immobilized by using 4% (v/v) paraformaldehyde (Wako Pure Chemical Industries, Ltd.). By using an Attophos (registered trademark) AP Fluorescent Substrate System (Promega Corporation), the ALP activity was calculated, and from the calibration curve, the number of undifferentiated iPS cells having the ALP activity was calculated. In Table 7, the cell adhesion rate is expressed as a ratio calculated by regarding the cell adhesion rate obtained from the sample 15 using natural vitronectin as being 100%. n=3.

Molecule	Cell adhesion rate (%)
B1	89.2 ± 1.4
B2	88.6 ± 8.1

same assay, conditions: added amount 20 μg/cm^2; 30,000 cells/well, 24 hours; natural vitronectin (sample 15) = 100%; n=3

Molecule	Cell adhesion rate (%)
B3	93.0 ± 7.8
B4	95.5 ± 10.2
B5	106.1 ± 4.5
B6	100.1 ± 4.5
B7	98.7 ± 6.2
B8	92.8 ± 4.4

test system: not listed separately; assay: Aggregation after dialysis of purified polypeptide solution; format: physicochemical; design: key: G: The formation of an aggregate was not observed.; A: The formation of particles having a particle size of about 100 nm was observed.; B: The formation of an aggregation of particles having a particle size of equal to or greater than 1 mm was visually observed; conditions: not given
Experimental: For RCP-1 to RCP-11, each of the purified polypeptide solutions was dialyzed using Slide-A-Lizer (3.5 K MWCO.). Basically, by using a dialysis buffer (PBS, 1.5 M NaCl, 0.5 M L-arginine, 1 mM EDTA, pH 7.4) as an outer dialysate, urea was removed by stepwise dialysis. The concentration of the end-product of dialysis was calculated from the absorbence at 280 nm by using NanoDrop (Thermo Fisher Scientific Inc.).
Whether or not aggregation was occurred was evaluated based on the scale of A, and B as shown below.
G: The formation of an aggregate was not observed.
A: The formation of particles having a particle size of about 100 nm was observed.
B: The formation of an aggregation of particles having a particle size of equal to or greater than 1 mm was visually observed.

Molecule	Aggregation
B1	A
B3	B (The formation of an aggregation of particles having a particle size of equal to or greater than 1 mm was visually observed.)
B4	B (The formation of an aggregation of particles having a particle size of equal to or greater than 1 mm was visually observed.)
B5	G
B6	G
B7	G
B2	A
B8	A
